In PMC6377630, “NapM enhances the survival of Mycobacterium tuberculosis under stress and in macrophages” (Communications Biology, 2019):

Key:
[1] = test system: NapM (Mycobacterium tuberculosis H37Ra); assay: EMSA; settings: pH and temperature not stated
[2] = test system: DnaA (Mycobacterium tuberculosis H37Ra); assay: EMSA; settings: pH and temperature not stated

oriC fragment
Kd [1]: 458 nM
Kd [2]: 60.5 nM
